For one experiment, the target named is T1, IFN-αR2c/ECFP (human, UniProt P48551 27-515).
T1 sequence (looked up): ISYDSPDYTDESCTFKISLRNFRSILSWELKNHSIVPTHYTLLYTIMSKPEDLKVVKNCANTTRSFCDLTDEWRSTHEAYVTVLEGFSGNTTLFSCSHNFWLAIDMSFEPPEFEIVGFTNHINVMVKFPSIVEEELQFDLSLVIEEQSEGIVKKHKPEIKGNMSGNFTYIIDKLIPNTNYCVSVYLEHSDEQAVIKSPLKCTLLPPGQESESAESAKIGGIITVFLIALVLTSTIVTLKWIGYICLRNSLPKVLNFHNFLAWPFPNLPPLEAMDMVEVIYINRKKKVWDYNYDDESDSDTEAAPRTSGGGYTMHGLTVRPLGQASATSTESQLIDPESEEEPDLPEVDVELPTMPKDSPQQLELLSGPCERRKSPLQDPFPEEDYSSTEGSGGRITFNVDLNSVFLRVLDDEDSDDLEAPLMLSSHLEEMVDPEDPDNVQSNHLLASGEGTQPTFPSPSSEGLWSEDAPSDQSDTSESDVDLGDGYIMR
The experiment can be described thus: FRET or BRET. A general note: In BRET a luciferase serves as donor, and the signal depends on an acceptor being close.

For another experiment, the target named is T2, IL-10R2/StFP (human, UniProt Q08334 20-325).
T2 sequence (looked up): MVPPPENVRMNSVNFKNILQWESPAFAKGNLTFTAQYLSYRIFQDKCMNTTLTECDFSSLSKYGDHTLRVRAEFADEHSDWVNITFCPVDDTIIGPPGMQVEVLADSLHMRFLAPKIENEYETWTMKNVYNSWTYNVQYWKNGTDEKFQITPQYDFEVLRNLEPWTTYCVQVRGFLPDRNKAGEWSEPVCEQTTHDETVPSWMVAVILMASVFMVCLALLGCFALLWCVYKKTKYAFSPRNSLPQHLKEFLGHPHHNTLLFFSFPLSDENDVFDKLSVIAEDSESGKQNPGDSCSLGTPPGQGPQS
Description: FRET or BRET.

B1: IFN-αR1/EYFP (receptor, human, UniProt P17181 28-557, looked up)
chain: KNLKSPQKVEVDIIDDNFILRWNRSDESVGNVTFSFDYQKTGMDNWIKLSGCQNITSTKCNFSSLKLNVYEEIKLRIRAEKENTSSWYEVDSFTPFRKAQIGPPEVHLEAEDKAIVIHISPGTKDSVMWALDGLSFTYSLVIWKNSSGVEERIENIYSRHKIYKLSPETTYCLKVKAALLTSWKIGVYSPVHCIKTTVENELPPPENIEVSVQNQNYVLKWDYTYANMTFQVQWLHAFLKRNPGNHLYKWKQIPDCENVKTTQCVFPQNVFQKGIYLLRVQASDGNNTSFWSEEIKFDTEIQAFLLPPVFNIRSLSDSFHIYIGAPKQSGNTPVIQDYPLIYEIIFWENTSNAERKIIEKKTDVTVPNLKPLTVYCVKARAHTMDEKLNKSSVFSDAVCEKTKPGNTSKIWLIVGICIALFALPFVIYAAKVFLRCINYVFFPSLKPSSSIDEYFSEQPLKNLLLSTSEEQIEKCFIIENISTIATVEETNQTDEDHKKYSSQTSQDSGNYSNEDESESKTSEELQQDFV
With B1, in the experiment with IFN-αR2c/ECFP, the “EC50* (relative), rarely seen” value was 4 pairs/cell.

B2: IFN-λR1/CiFP (receptor, human, UniProt Q8IU57 21-520, looked up)
chain: RPRLAPPQNVTLLSQNFSVYLTWLPGLGNPQDVTYFVAYQSSPTRRRWREVEECAGTKELLCSMMCLKKQDLYNKFKGRVRTVSPSSKSPWVESEYLDYLFEVEPAPPVLVLTQTEEILSANATYQLPPCMPPLDLKYEVAFWKEGAGNKTLFPVTPHGQPVQITLQPAASEHHCLSARTIYTFSVPKYSKFSKPTCFLLEVPEANWAFLVLPSLLILLLVIAAGGVIWKTLMGNPWFQRAKMPRALDFSGHTHPVATFQPSRPESVNDLFLCPQKELTRGVRPTPRVRAPATQQTRWKKDLAEDEEEEDEEDTEDGVSFQPYIEPPSFLGQEHQAPGHSEAGGVDSGRPRAPLVPSEGSSAWDSSDRSWASTVDSSWDRAGSSGYLAEKGPGQGPGGDGHQESLPPPEFSKDSGFLEELPEDNLSSWATWGTLPPEPNLVPGGPPVSLQTLTFCWESSPEEEEEARESEIEDSDAGSWGAESTQRTEDRGRTLGHYMAR
Consider B2, for which, in the experiment with IL-10R2/StFP, the “EC50* (relative)” value is 200 pairs/cell and the “EC50* (relative), rarely seen” value worked out at 70 pairs/cell.
